# Test results: PMC11713712, “PFTAIRE peptide degrading cyclin Y and ameliorating cognitive deficits in mouse models of Alzheimer’s Disease” (Alzheimer's & Dementia, 2025)
# Assays:
# [1] = target: T1, CCNY protein (Homo sapiens, UniProt Q8ND76); assay: Binding of PFTAIRE peptide to CCNY protein in in vitro studies
# Excerpt: (§1) Utilizing solid‐phase peptide synthesis, PFTAIRE peptide was produced.
# [2] = Excerpt: Abstract Background Cyclin Y (CCNY) is a member of cyclin protein family inhibiting long‐term synaptic plasticity, which is related to the learning and memory function in neuronal system. Recently, CCNY has been reported to associate with the cognitive deficits in Alzheimer’s disease (AD). […] This peptide is derived from the domain of cyclin‐dependent kinase 14, a kinase degrading CCNY protein, and this domain is essential for the binding to CCNY. Utilizing solid‐phase peptide synthesis, PFTAIRE peptide was produced. […] We intravenously injected PFTAIRE peptide to AD mouse models and performed behavior tests.
# [3] = system: AD mouse models; assay: Behavior tests in AD mouse models after intravenous injection; type: in vivo; conditions: intravenously injected
# Excerpt: as §1
# [4] = target: T1, CCNY protein; assay: CCNY protein level
# Excerpt: as §1
# T1 sequence (Q8ND76 whole entry, species assumed): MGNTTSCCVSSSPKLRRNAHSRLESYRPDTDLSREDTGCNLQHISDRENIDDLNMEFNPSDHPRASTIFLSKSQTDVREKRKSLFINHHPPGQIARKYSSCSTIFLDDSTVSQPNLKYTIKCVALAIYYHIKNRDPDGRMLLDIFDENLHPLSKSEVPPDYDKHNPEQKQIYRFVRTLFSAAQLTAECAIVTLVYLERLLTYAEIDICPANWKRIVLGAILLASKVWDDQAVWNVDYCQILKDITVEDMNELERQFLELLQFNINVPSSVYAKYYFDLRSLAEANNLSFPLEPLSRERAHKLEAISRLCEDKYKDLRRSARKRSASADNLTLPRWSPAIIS
substance,measurement,setting,value
PFTAIRE peptide: Peptide derived from the domain of cyclin‐dependent kinase 14 essential for binding to CCNY; produced by solid‐phase peptide synthesis,binding to CCNY protein,[1],binds to CCNY protein
same,plasma stability,[2],confirmed the plasma and liver microsomal stability
same,liver microsomal stability,[2]; liver microsomes,confirmed the plasma and liver microsomal stability
same,memory impairments in behavior tests,[3],prevents memory impairments
same,CCNY protein level,[4],diminish CCNY protein level
